“Also recorded” adds a separate entry of the source.
How the values were obtained:
[1] = test system: wild-type fibroblast; test: Fibroblast migration on periostin and collagen coated dishes; format: cell-based; details: varying amounts of periostin and collagen coated on dishes
Experimental: FIG. D-2: Varying amounts of periostin and collagen coated dishes were assayed for their ability to promote wild-type fibroblast migration.
A final additional approach to be considered for this aim involves alternative migration assays. Scratch assays are a standard two-dimensional in vitro “wounding” assay whereby a small scratch is introduced into a confluent monolayer of cells and the time the cells take to invade and fill in the empty area provides a measure of migration^78. Thus, these assays will be employed to assess the 2-dimensional migratory capabilities of the “unidentified cells”. The time it takes for “unidentified” cells to fill the gap will be compared to that of wild-type cardiac fibroblasts. Preliminary data on fibroblasts has been previously performed and serves as a benchmark for comparison (FIG. D-2). This 2-D culture assay will serve as a nice complement to the 3-D migration and invasion assay proposed in Experiment 2.

[2] = test system: Mesenchyme from periostin null mice; test: Hanging drop culture of periostin null mesenchyme with purified periostin protein, Western analysis for collagen I; format: cell-based, mouse; details: 7 days, purified periostin protein 10 µg/ml vs PBS
Experimental: FIG. C-4: Periostin regulates collagen I synthesis. Mesenchyme from periostin null mice were placed in hanging drop cultures and incubated with either purified periostin protein (10 µg/ml) or PBS. Mesenchyme from wild-type mice were used as control tissues. After 7 days, tissues were analyzed for periostin and collagen expression by Western analysis. […] Actin is used for protein normalization (B) Graphical representation of Western analyses presented in panel A obtained from densitometric analyses using NIH image software. Values obtained were compared against wild-type values (baseline) and represented as relative percent change. * denotes p<0.05
To further determine the potential for periostin to affect fibroblast differentiation, we compared mesenchymal cells isolated from periostin null and wild-type mice, in addition to performing “rescue” experiments. For this study, we isolated atrioventricular mesenchyme from E12.5 periostin null and wild-type mice and placed them in hanging drop cultures for 7 days. In addition, purified protein was added to a subset of the hanging drops to determine the ability to rescue any defects observed in marker expression. After 7 days, the hanging drops were collected, lysed and Western analyses were performed for the fibroblast markers collagen I[…]I, and I[…]2. […]

B1: purified periostin protein: purified periostin protein, 90 kDa secreted matricellular protein; added to culture medium or coated on dishes (protein, UniProt Q15063 22-836, looked up)
Periostin: NNHYDKILAHSRIRGRDQGPNVCALQQILGTKKKYFSTCKNWYKKSICGQKTTVLYECCPGYMRMEGMKGCPAVLPIDHVYGTLGIVGATTTQRYSDASKLREEIEGKGSFTYFAPSNEAWDNLDSDIRRGLESNVNVELLNALHSHMINKRMLTKDLKNGMIIPSMYNNLGLFINHYPNGVVTVNCARIIHGNQIATNGVVHVIDRVLTQIGTSIQDFIEAEDDLSSFRAAAITSDILEALGRDGHFTLFAPTNEAFEKLPRGVLERIMGDKVASEALMKYHILNTLQCSESIMGGAVFETLEGNTIEIGCDGDSITVNGIKMVNKKDIVTNNGVIHLIDQVLIPDSAKQVIELAGKQQTTFTDLVAQLGLASALRPDGEYTLLAPVNNAFSDDTLSMDQRLLKLILQNHILKVKVGLNELYNGQILETIGGKQLRVFVYRTAVCIENSCMEKGSKQGRNGAIHIFREIIKPAEKSLHEKLKQDKRFSTFLSLLEAADLKELLTQPGDWTLFVPTNDAFKGMTSEEKEILIRDKNALQNIILYHLTPGVFIGKGFEPGVTNILKTTQGSKIFLKEVNDTLLVNELKSKESDIMTTNGVIHVVDKLLYPADTPVGNDQLLEILNKLIKYIQIKFVRGSTFKEIPVTVYTTKIITKVVEPKIKVIEGSLQPIIKTEGPTLTKVKIEGEPEFRLIKEGETITEVIHGEPIIKKYTKIIDGVPVEITEKETREERIITGPEIKYTRISTGGGETEETLKKLLQEEVTKVTKFIEGGDGHLFEDEEIKRLLQGDTPVRKLQANKKVQGSRRRLREGRSQ
fibroblast migration [1]: titrating affect of periostin in combination with collagen to stimulate migration | collagen I expression (collagen Iα1 and Iα2, Western analysis) [2]: rescued; also recorded: induces expression of collagen I[…]1 and I[…]2 | collagen I expression (collagen Iα1 and Iα2, Western analysis) ([2]; listed as purified protein): reactivation of collagen isoforms

Reference: patent US20100291188A1, “Periostin Inhibitory Compositions for Myocardial Regeneration, Methods of Delivery, and Methods of Using Same” (MUSC FOUNDATION FOR RESEARCH DEVELOPMENT, priority 2008, published 2010)
